Source: US20210386788A1, “ER TUNABLE PROTEIN REGULATION” (Obsidian Therapeutics, Inc., priority 2018, published 2021)

Assays:
Assay type in all cases: cell-based, human
primary T cells = experiment: CD19 CAR expression on lentivirus transduced primary T cells (flow cytometry with CD19-Fc); conditions: both day 7 and day 9
Procedure: Primary T cells were activated with CD3/CD28 Dynabeads at 3:1 Bead: Cell ratio overnight, then transduced with OT-001792 lentivirus. On day 7 of the T cell expansion, CAR expression was measured by flow cytometry with CD19-Fc on cells treated overnight in the presence (34% positive) or absence (0.6% positive) of 1 μM Bazedoxifene. After the T cells had expanded for 10 days, they were mixed with CD19-expressing Nalm6 target cells at ratios of 10:1 and 2.5:1 total T cells:Nalm6 cells and cultured for 3 days.
Primary T cells were activated with CD3/CD28 Dynabeads at 3:1 Bead:Cell ratio overnight, then transduced with lentiviruses derived from the indicated constructs. On day 7 or day 9 (as indicated) of the T cell expansion, CAR expression was measured by flow cytometry with CD19-Fc on cells incubated for 24 hours with 1 μM Bazedoxifene or 1 μM Raloxifene or DMSO. […] At day 9 the basal percentage of CAR positive cells for the same constructs was even lower at approximately 20% i.e. in the absence of ligand and about 32-45% in the presence of either ligand. […] This was true at both day 7 and day 9.
Human donor T cells were thawed and activated overnight in the presence of CD3/CD28 Dynabeads at 3:1 bead:cell ratio, then transduced with lentivirus related to OT-002158, or OT-001786. Cells were expanded over the course of 10 days, with fresh media added to maintain cells at around 0.5×10^6 cells/mL. On day 9, an aliquot of cells was removed, and treated with 1 μM Bazedoxifene overnight or DMSO vehicle control, then stained with 10 μg/mL CD19-Fc. Histograms showing CAR expression from a Live Singlet cell gate were plotted.
Human donor T cells were thawed and activated overnight in the presence of CD3/CD28 Dynabeads at 3:1 bead:cell ratio, then transduced with lentivirus from the constructs. Cells were expanded over the course of 10 days, and fresh media was added to maintain cells around 0.5×10^6 cells/ml. On day 9, an aliquot of cells were removed, treated with 1 μM Bazedoxifene overnight, then stained with 10 μg/mL CD19-Fc. Histograms showing CAR expression from a Live Singlet cell gate were plotted. The data are shown in Table 19 and Table 20 where data are presented as % CAR positive cells, where SR indicates stabilization ration.
T cells were transduced with OT-00179, OT-002158, OT-001407 or empty vector and expanded as described herein, frozen on day 10. To confirm the expression and function of this large scale expansion for in vivo use, cells were thawed and incubated overnight in the presence of CD3/28 beads (1:1 bead:cell ratio) and with or without 1 μM Bazedoxifene. FACS staining with 1 μg/mL CD19-Fc was performed to measure the surface expression of CD19-CAR. The data are provided in Table 21 as the percentage CAR positive cells.

HEK 293T cells = experiment: IL12 expression of ER-DD flexi IL12 constructs in transiently transfected HEK 293T cells (MSD assay); conditions: for IL12 expression, 1 μM BZD / IL12 expression, Vehicle: HEK 293T transiently transfected, MSD assay; for IL12 expression, 1 μM BZD: 1 μM Bazedoxifene 24 hours; for IL12 expression, Vehicle: vehicle control 24 hours; for Stabilization Ratio: IL12 with 1 μM BZD versus vehicle
Procedure: HEK 293T cells were transiently transfected with constructs containing ER-DDs fused to flexi IL12 with or without intervening furin site to generate constructs: OT-001569, OT-001737. Cells were then treated with 1 μM Bazedoxifene (BZD) or vehicle control for 24 hours and IL12 levels were measured by MSD assay Table 11.

HEK293T cells [1] = experiment: IL12 p40 in media of HEK293T cells transfected with IL12-CD19 CAR tandem constructs (MSD assay); conditions: for IL12p40 DMSO Average: vehicle 24 hrs (absence of ligand)
Procedure: (§1) HEK293T cells were transiently transfected with 1 μg DNA from each construct listed in the first column of Table 13 and incubated in DMEM with 10% FBS at 37° C., 5% CO2 for 24 hrs. Following the incubation, 1 μM of Bazedoxifene (BZD) or vehicle was added and cells were further incubated for 24 hrs. Following the incubation, CD19 CAR expression on the cell surface was quantified using FACS with CD19-Fc reagent, as a measure of transfection efficiency. IL12 levels in the media were quantified using MSD assay for p40. The IL12 and CD19 levels are shown in Table 13, where SD indicates standard deviation and SR indicates stabilization ratio. The stabilization ratio was calculated using the average IL12 values.

HEK293T cells [2] = experiment: CD19 CAR cell surface expression in transfected HEK293T cells (FACS with CD19-Fc); conditions: measure of transfection efficiency
Procedure: as §1

Molecule | percentage of CAR positive cells (primary T cells; absence of ligand) | percentage of CAR positive cells (primary T cells; presence of ligand) | IL12 expression, 1 μM BZD (HEK 293T cells) | IL12 expression, Vehicle (HEK 293T cells) | Stabilization Ratio (HEK 293T cells) | IL12p40 1 μM BZD Average (HEK293T cells [1]; HEK293T, 1 μg DNA, 1 μM Bazedoxifene 24 hrs) [pg/mL] | IL12p40 DMSO Average (HEK293T cells [1]; HEK293T, 1 μg DNA) [pg/mL] | SR (stabilization ratio) (HEK293T cells [1]; calculated using the average IL12 values, 1 μM BZD versus DMSO) | Surface CAR (HEK293T cells [2]) [%]
OT-001791: CD8α leader; Linker (RS); ER (T371A, L384M, M421G, N519S, G521R, Y537S); Furin cleavage site; CD19 CAR; SEQ ID NO. 404 (protein) MALPVTALLLPLALLLHAARPRSSLALSLTADQMVSALLDAEPPILYSEYDPTRPFSEASMMGLLTNLADRELVHMINWAKRVPGFVDLALHDQVHLLECAWMEILMIGLVWRSMEHPGKLLFAPNLLLDRNQGKCVEGGVEIFDMLLATSSRFRMMNLQGEEFVCLKSIILLNSGVYTFLSSTLKSLEEKDHIHRVLDKITDTLIHLMAKAGLTLQQQHQRLAQLLLILSHIRHMSSKRMEHLYSMKCKNVVPLSDLLLEMLDAHRLGTGAEDPRPSRKRRSLGDVGEIVMTQSPATLSLSPGERATLSCRASQDISKYLNWYQQKPGQAPRLLIYHTSRLHSGIPARFSGSGSGTDYTLTISSLQPEDFAVYFCQQGNTLPYTFGQGTKLEIKGGGGSGGGGSGGGGSQVQLQESGPGLVKPSETLSLTCTVSGVSLPDYGVSWIRQPPGKGLEWIGVIWGSETTYYSSSLKSRVTISKDNSKNQVSLKLSSVTAADTAVYYCAKHYYYGGSYAMDYWGQGTLVTVSSTTTPAPRPPTPAPTIASQPLSLRPEACRPAAGGAVHTRGLDFACDIYIWAPLAGTCGVLLLSLVITLYCKRGRKKLLYIFKQPFMRPVQTTQEEDGCSCRFPEEEEGGCELRVKFSRSADAPAYKQGQNQLYNELNLGRREEYDVLDKRRGRDPEMGGKPRRKNPQEGLYNELQKDKMAEAYSEIGMKGERRRGKGHDGLYQGLSTATKDTYDALHMQALPPR | undetectable | about 5% | – | – | – | – | – | – | –
OT-001737: ER-DD fused to flexi IL12, with or without intervening furin site (protein) MCHQQLVISWFSLVFLASPLVAGSSLALSLTADQMVSALLDAEPPILYSEYDPTRPFSEASMMGLLTNLADRELVHMINWAKRVPGFVDLALHDQVHLLECAWMEILMIGLVWRSMEHPGKLLFAPNLLLDRNQGKCVEGGVEIFDMLLATSSRFRMMNLQGEEFVCLKSIILLNSGVYTFLSSTLKSLEEKDHIHRVLDKITDTLIHLMAKAGLTLQQQHQRLAQLLLILSHIRHMSSKRMEHLYSMKCKNVVPLSDLLLEMLDAHRLRTKRIWELKKDVYVVELDWYPDAPGEMVVLTCDTPEEDGITWTLDQSSEVLGSGKTLTIQVKEFGDAGQYTCHKGGEVLSHSLLLLHKKEDGIWSTDILKDQKEPKNKTFLRCEAKNYSGRFTCWWLTTISTDLTFSVKSSRGSSDPQGVTCGAATLSAERVRGDNKEYEYSVECQEDSACPAAEESLPIEVMVDAVHKLKYENYTSSFFIRDIIKPDPPKNLQLKPLKNSRQVEVSWEYPDTWSTPHSYFSLTFCVQVQGKSKREKKDRVFTDKTSATVICRKNASISVRAQDRYYSSSWSEWASVPCSGGGGSGGGGSGGGGSRNLPVATPDPGMFPCLHHSQNLLRAVSNMLQKARQTLEFYPCTSEEIDHEDITKDKTSTVEACLPLELTKNESCLNSRETSFITNGSCLASRKTSFMMALCLSSIYEDLKMYQVEFKTMNAKLLMDPKRQIFLDQNMLAVIDELMQALNFNSETVPQKSSLEEPDFYKTKIKLCILLHAFRIRAVTIDRVMSYLNAS | – | – | 79706.8 | 10186.4 | 7.8 | – | – | – | –
OT-001569: ER-DD (T371A, L384M, M421G, N519S, G521R, Y537S) fused to flexi IL12 (protein) MCHQQLVISWFSLVFLASPLVAGSSLALSLTADQMVSALLDAEPPILYSEYDPTRPFSEASMMGLLTNLADRELVHMINWAKRVPGFVDLALHDQVHLLECAWMEILMIGLVWRSMEHPGKLLFAPNLLLDRNQGKCVEGGVEIFDMLLATSSRFRMMNLQGEEFVCLKSIILLNSGVYTFLSSTLKSLEEKDHIHRVLDKITDTLIHLMAKAGLTLQQQHQRLAQLLLILSHIRHMSSKRMEHLYSMKCKNVVPLSDLLLEMLDAHRLGSIWELKKDVYVVELDWYPDAPGEMVVLTCDTPEEDGITWTLDQSSEVLGSGKTLTIQVKEFGDAGQYTCHKGGEVLSHSLLLLHKKEDGIWSTDILKDQKEPKNKTFLRCEAKNYSGRFTCWWLTTISTDLTFSVKSSRGSSDPQGVTCGAATLSAERVRGDNKEYEYSVECQEDSACPAAEESLPIEVMVDAVHKLKYENYTSSFFIRDIIKPDPPKNLQLKPLKNSRQVEVSWEYPDTWSTPHSYFSLTFCVQVQGKSKREKKDRVFTDKTSATVICRKNASISVRAQDRYYSSSWSEWASVPCSGGGGSGGGGSGGGGSRNLPVATPDPGMFPCLHHSQNLLRAVSNMLQKARQTLEFYPCTSEEIDHEDITKDKTSTVEACLPLELTKNESCLNSRETSFITNGSCLASRKTSFMMALCLSSIYEDLKMYQVEFKTMNAKLLMDPKRQIFLDQNMLAVIDELMQALNFNSETVPQKSSLEEPDFYKTKIKLCILLHAFRIRAVTIDRVMSYLNAS | – | – | 109878 | 11529.1 | 9.5 | 75542.57 | 6443.64 | 11.72 | 0.1
OT-001356: IL12-CD19 CAR tandem construct listed without ER DD mutation in Table 13 (control) (protein) IWELKKDVYVVELDWYPDAPGEMVVLTCDTPEEDGITWTLDQSSEVLGSGKTLTIQVKEFGDAGQYTCHKGGEVLSHSLLLLHKKEDGIWSTDILKDQKEPKNKTFLRCEAKNYSGRFTCWWLTTISTDLTFSVKSSRGSSDPQGVTCGAATLSAERVRGDNKEYEYSVECQEDSACPAAEESLPIEVMVDAVHKLKYENYTSSFFIRDIIKPDPPKNLQLKPLKNSRQVEVSWEYPDTWSTPHSYFSLTFCVQVQGKSKREKKDRVFTDKTSATVICRKNASISVRAQDRYYSSSWSEWASVPCSGGGGSGGGGSGGGGSRNLPVATPDPGMFPCLHHSQNLLRAVSNMLQKARQTLEFYPCTSEEIDHEDITKDKTSTVEACLPLELTKNESCLNSRETSFITNGSCLASRKTSFMMALCLSSIYEDLKMYQVEFKTMNAKLLMDPKRQIFLDQNMLAVIDELMQALNFNSETVPQKSSLEEPDFYKTKIKLCILLHAFRIRAVTIDRVMSYLNASGS | – | – | – | – | – | – | 203531.67 | – | 40
